Measured values published in patent publication US20210079071A1.

Tests used:
[1] = molecular target: T1, Staphylocoagulase peptide SC(1-10), …, unconjugated (Staphylococcus aureus); test: ELISA: purified GMA-2105 on unconjugated …, A490
[2] = molecular target: Staphylocoagulase peptide SC(1-10) conjugated to ovalbumin (Staphylococcus aureus); test: ELISA: purified GMA-2105 on SC peptide-ovalbumin conjugate, A490
[3] = molecular target: T1, Staphylocoagulase peptide SC(1-10), …, …; test: ELISA: GMA-2105 F(ab) on wells coated with …, A490
[4] = molecular target: GMA-2105 murine anti-staphylocoagulase monoclonal antibody

B1: GMA-2105 murine anti-staphylocoagulase monoclonal antibody (antibody, V domains shown)
VH: EVKLEESGGGLVQPGGSMKLSCAASGFTFSDAWMDWVRQSPEKGLEWVAEIRTKANNHATYYAESVKGRFTISRDDSKSSVYLQMNSLRAEDTGIYYCTNVYYGNNDVKDYWGQGTSVTVSPAS
VL: DIVMTQSQKFMSTSVGDRVSVTCKASQNVDIYVAWYQQKPGQSPKALIYSASYRFSGVPDRFTGSGSGTDFTLSISNVQSEDLAEYFCQQYNNYPYTFGGGTKLEIKRADAAPTVSIFPPSSEGRI
EC50 (read off the curve) [1]: 0.05 µg/mL | EC50 (read off the curve) [2]: 0.03 µg/mL

B2: GMA-2105 F(ab) fragment (Fab, V domains shown)
VH: B1 VH
VL: B1 VL
EC50 (read off the curve) [3]: 0.1 µg/mL

IVTKDYSKES (modifications not checked) [Staphylocoagulase peptide SC(1-10), …, unconjugated]
IC50 (read off the curve) [4]: 2 nM
